Target: the molecule itself
Test: SEC; Hi-Load Superdex 200 16/60 directly after Ni-NTA chromatography; 2 M NaCl, 5 mM MgCl2, 50 mM Tris-HCl, pH 9.2; 1 mL/min; masses from a calibration curve of marker proteins (12.4-200 kDa)

B1: Haloferax volcanii AglM, C-terminally polyhistidine-tagged (enzyme, UniProt D4GYH5 1-430, looked up)
chain: MELSIIGSGYVGTTIAACFAELGHDVVNVDIDEDIVASLNDGQAPIHEPGLAELVERYAGDRLRATTDYDEILDTDATFLALPTPSTDDGSIDLGAMKTAATSLGETLARKDDSHLVVTKSTVVPRTTVDVIGPRIEEASGKRVGDGLDIAMNPEFLREGTAVDDFLSPDKIVLGAQTDRAYETLAEIFAPLVERAGNPPVVKTGISEAEMIKYANNAFLASKISLANDLANICKVFGVDSAEVLESIGLDSRIGSAFLGAGLGWGGSCFPKDTAAIIAAARAQGYEPRLLQAAVDVNDGQPERMLDLLRERFDLDGKRVAVLGLAFKPGTDDIRKSRAILLIQALLDAGADVVGYDPVATENMRERFPDIDYADSAADALANADAALVATDWDEFAALDDEFDAMRERIVIDGRRIVTRREGLDYESLV
notes: AglM, UDP-glucose dehydrogenase of Haloferax volcanii, 430 residues; gene amplified from genomic DNA with primers at the start and end of the gene; Calculated mass of the His-tagged chain close to 47 kDa; also called His-tagged AglM; UDP-glucose dehydrogenase; source: Hfx. volcanii cells transformed with pHis-AglM, purified (Ni-NTA, then size-exclusion chromatography); not shown: polyhistidine, …
stoichiometry N: 12
